# Reference: the DeepSol protein solubility set
# Experiment: soluble on expression in E. coli; label from the status in PepcDB or PDB records
row,Sequence,soluble on expression in E. coli
1,MVKSPGASPERKKVKIDVYPMVVKDPQAREINETLLFDYTTALSSFETPTEEQLLVSEGDAFRHHPNEDVEQYFRASAQWGVPAIAWNIVRPAFLWKLEFCITEFMNVEKKKKEAAANSAQANSEVEKIAESPVKEKLSILGHKVNLIKTTPVVFSTEESMEFVLSKAKSFDGFPFTWQRLCELLIEPMRHYNTIDKFLRAVDKVINVVTTINENGGRSFGDWDLPNSQQFHLENTFFGVVDEVEMMELEKVKHDFQSSSSPSEEPLDMSQKSMPAPRVSTASPDPPSFVLPTARSPINTSPSSSPKASSPKASSPKAASPVSSPKSPVIQDQSPKKEDAKEGEGEIVHEEEMPEETLEVETKNEVNKEDADMEIGAE,not soluble
2,MVLASSSAFALKDDVNQPINIVSDNQSLDMEKSVVTFTDNVVITQGSIVIKANKVVITRPAEKSGKKETVEAFGTPVTFHQQLDNGKPVDGKANKVHYDLGNEFLTLTNNAELKQLDSKINGSVITYDVKKQQLKANGNGKSRVTTVLIPSQLQQAKGK,not soluble
3,MVMEDNESCASRVIFDALPTSQATMDRRERIKMEVFDEVLRRLRQSDIEDAHLPGFEDDLWNHFNRLPARYALDVNVERAEDVLMHKRLLHSAYDPQNRPAIEVHLVQVQPAGISADLDSTSNDAGHSSPTRKSIHPPPAFGSSPNLEALALAASLSQDEDADNSVHNNSLYSRPLHEITFSTEDKPKLLFQLTALLAELGLNIQEAHAFSTTDGYSLDVFVVDGWPYEETERLRISLEKEAAKIELQRPDFSEIIEQLQEIAKEVGEEGEEKKKSSTGLGGGIFAALRRSTTHH,soluble
4,MVMKREVVGYTTMSEHLIDTQLTRSPFFFASANQSMLGCGVAHAFQQAIPFAELANQAKQLLQQAKRDECDNPLLFGIVPFDPKTPTRFMIPRTLYVSSSPRLNRPAHLTRQVAKLISSPSGEQYKQGVSHLLNMFHHSGLSKVVLSRAIEIATEQEIALPTLLRSLLAINHHGYTFAASLDEQRKLIGASPELLVAKRGNYLISNPLAGSRPRSQDAQENAQRRASLLNTAKDLHEHGLVVEEVERIMSRYCRNLYTPMVPSVIETETMLHLSTLLEGQVSDPEVCALQVAADLHPTPAVCGFPRESAYQAIRELEEFDRGYFTGMVGWCDARGNGEWVVTIRCAEVGSHQMKLFAGAGIVDESLPQSELEETGAKMKTILAAAGIELNDVLTA,not soluble
5,MVMTVRVIAPDKTVWDAPAEEVILPSTTGQLGILSNHAPLLTALETGVMRVRQDREWVAIALMGGFAEVENNEVTILVNGAERGDTIDPQEAQQTLEIAEANLRKAEGARQKIEANLALRRARTRVEASNTISS,soluble
6,MVNYENVIVTEITETLTFFAQSVESGSKLESLMSKLHADFQSNPPIAGSYTPKRGDLVAAQFTLDNQWYRAKVERVQGSNATVLYIDYGNKETLPTNRLAALPPAFSSEKPYATEYALALVALPTDNEDKEEALRAFSEDVLNHKVQLNVELKVTGSPNLATLRDPTTKVDFGKQLVAEGLVLAEQRGERKLKELVDQYKAAQEAARVAHLAIWKYGD,soluble
7,MVPPKLKQALELFKSLPKELRSQVLLEYAAKVPPPPPGVELERVHECQTPFFVHADVEGGKVRLYFHVPDEAPTVKAFAGLLREGLEGESPEAVLEVPPGFYRGYGLEEFFTPLRLRGLEAALLRLQAQVRKALTS,soluble
8,MVPRTSSSNPTLRKTSPTMADIDITRSHSLGLDDGRAAVGRVADKLETELGVDAEWTGDTLQFSGQGADGHIEVEADAVHVAINLSAFLQPMRSRVQAEAEDYLDQSLQSQS,not soluble
9,MVQDQIRYDILVQDALRGVIRKVLSEVAKAGLPGSHHFFITFLTNAPGVKISTRLKSRYPEQMTIVLQHQFRDLNVSETAFEVTLSFREVSEKLVIPFHSIQVFYDPVAAFEAAFDLPSNLNSKEGENLENIASTPVILSDTQKKEKKFPKEQISKTNKDSSNNDTKQSADVVSLDSFRKKLEHHHHHH,soluble
10,MVQQQQQSQQRMMELHERNDREKLARKTEKEREEERRKQEDDKILQLEKKLEEFQENARFIGDLASNFQTKYQDALNGRIYTLVRGLQDLDRMKGTFSDKKVPLDLLPYLDDGKNPCLYSKHCMEKTLEKNKAVNGKIEIYKKFRAHLMKEFSEEMPDLVMYYRSIREDLDLS,not soluble
11,MVQRLISANASEIKRMSKEELFQSIKASEGRVILSENVVVHPSVAGDITCAEMSKAYGADMILLNVFDVNQPIVVAAYEGQYTAETCVPNDEVVHRLKELVGLPIGMNVEPVDENLDLASTRVSIEPGRKASAATFKKANELGLDFILLTGNPGTGVTNDLIAKNVALAKKHFDGIIIAGKMHSSGVDEPVVSLKSAEQFIEAGADIVLVPAVGTVWGIDDQQVKEVVDFAHSKGKLVMSAIGTSQESAQPEVIQAIGIRNKILGVDIQHIGDANMGLVGIENIKELSDAIRGKRHTVARMARSINR,not soluble
12,MVRDMRFCYRCGISEEEGGPLINGLCQVCFRKENPVLLLPSEINTELCQNCGSYKKRGVWVDPKNYELEALIFEVAENALLEALEDNLKVKDFEVVNWEELDEISEIPVGKAFVAYRVVDYHIEYFPAIVIYEVRSKARIHELQVEPHDERTTVTVYVRQTVCPRCQKFLAGYYEAILQVRVEGREFTKEEREEITKLVQEKVDEIMKRDRMGFIQDTIEKEEGIDFYMGSTSAARKLANAIREKYGGTISEAYELVGMDRQTSREVYRTSVTVRLPKFRKGDVVEDRYGRVYEVEEVNGKGMRLKNLETWKSEHYDWKTIKRERVDLANYEEKKAMLVSKTPSEVQFMDMETYETFEVKKPTDELKEGEVYTVVRVKGRMYVKEEVKELEHHHHHH,soluble
13,MVRKGRQHTEEALQEPRADRDRDVPNHIRGQAEQGVGARALQEGRGERAPQDTPAARGGRARGEGAREGEDYIARWEKPPRHHRQGDNGGARQDQARAGEVPLDLLILILIGP,soluble
14,MVSDAHFQGQFEVELKYRVKNHDAFLNMVKQIEHEVMFENNQESDWFYDTPQRTLTQQGKSLVLREIQPAGIKLWIVKGPEADRCEATNITKLDSAQSMLENMGYEVIQCSKKIRSIFFVGEFHITLDFLDGFGHFAEFAIMTDDETALARYRERLVALAQQFHLSEADREHRSYKEILSALEHHHHHH,soluble
15,MVSKLVKIEPKFKLIEKDGKGEYFIAKYNILPENLLVYGPEQELKKINTIQTNVKEFDTRTLFVSDYLEVVPPNPLVMFEKSHVVVNIYLNKLEHHHHHH,not soluble
16,MVSRSFFLTHTFKDVSKLGEGGSYSSDIEVRHDIPWKIRIFKKEGFLGVNLHCEKEECFETKKWTFQTKFTMKLVAVSDFPVSQHDSDNSFVLKHNFKNISRLVEDERDYSDTEKHYNALWSFKIRKFNEHLGIWLICEKEIWEERRWSINLQYELKLISASGKVRSAQYTNVFGVGSLWGILKFISWNNLEKDYVTNDSIDVEVLVKIIEFTELPCTEKTFVLSHIVKNMSSIEDGWKTFSDTQTRFNIPWKLQIRRQDGFVELLLHCSKQLDESRSWSIKTEYQFKLVSTNGRSVAFYGEKVFEKPVGSGWDKLIRWENWASRCNDEFVFEASVRILNTTGIEDENDVDRFSGFAIPVEGQEYSMEKWLEMAFDH,not soluble
17,MVSTDWKSDLRQRGYRLTPQRQLVLEAVDTLEHATPDDILGEVRKTASGINISTVYRTLELLEELGLVSHAHLGHGAPTYHLADRHHHIHLVCRDCTNVIEADLSVAADFTAKLREQFGFDTDMKHFAIFGRCESCSLKGSTTDS,soluble
18,MVSYKLTYFDGRGAGELCRQIFAAAEQKYEDNRLTDEEWEKFKAAGKTPYNQLPMLEVDGKPLAQSHAMARYLAREFGFNGKSRWEEAQVNSLADQYKDYYAEARPYLAVKLGYTEGDAEALYTSVYLPVFKKHYGFFVNALKASGSGFLVGNSLTFIDLLVAQHSADLLGREKSDLFNDVPEMKAHSEKVQSIPQIKKWIETRPASDW,not soluble
19,MVTEAMKAKAEVYHGDKTCREKFGSLLSEIGLPNRLLSNKEIKECGYVKDTGFVWLKHKEKKKEDQKRRYQDLLRFDNVVVCFEDEVTAYFEPNRIKKLTGVKAKEFMVWISLGEIQVNRSSGLITFKTEVGLLSKSLPLSVFEDVHGDDHDLKEKPKKELKLNKTKIYLY,not soluble
